From publication PMC9482650, “Quantitative fragmentomics allow affinity mapping of interactomes” (Nature Communications, 2022)

Assays:
Assay in all cases: holdup assay
Design in all cases: key: below the threshold = too weak to quantify, mostly under pKd 3.1 to 4
MAST1, Q9Y2H9 = molecular target: MAST1, Q9Y2H9
MPDZ_12, O75970 = molecular target: T1, MPDZ_12, O75970
T1 sequence (O75970 1857-1958, limits assumed, looked up): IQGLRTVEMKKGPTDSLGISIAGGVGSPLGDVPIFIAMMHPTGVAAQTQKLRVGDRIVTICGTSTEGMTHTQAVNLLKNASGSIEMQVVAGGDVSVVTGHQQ

MPDZ_10, O75970 = molecular target: T2, MPDZ_10, O75970
T2 sequence (O75970 1624-1722, limits assumed, looked up): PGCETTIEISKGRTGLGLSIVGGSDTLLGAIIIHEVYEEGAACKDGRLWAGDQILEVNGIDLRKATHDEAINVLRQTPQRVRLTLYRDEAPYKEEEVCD

GRIP1_7, Q9Y3R0 = molecular target: T3, GRIP1_7, Q9Y3R0
T3 sequence (Q9Y3R0 999-1096, limits assumed, looked up): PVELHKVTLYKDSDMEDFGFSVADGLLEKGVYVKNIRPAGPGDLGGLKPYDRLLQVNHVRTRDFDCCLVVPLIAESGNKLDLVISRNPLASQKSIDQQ

LAP2, Q96RT1 = molecular target: LAP2, Q96RT1
LAP2, Q96RT1, sequence (Q96RT1 other isoform, or with tags, fused parts or gaps): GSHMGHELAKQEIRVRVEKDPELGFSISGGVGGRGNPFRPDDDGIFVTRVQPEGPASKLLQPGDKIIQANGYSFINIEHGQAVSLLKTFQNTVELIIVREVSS

Inadl_3, Q8NI35 = molecular target: Inadl_3, Q8NI35
Inadl_3, Q8NI35, sequence (Q8NI35 359-469): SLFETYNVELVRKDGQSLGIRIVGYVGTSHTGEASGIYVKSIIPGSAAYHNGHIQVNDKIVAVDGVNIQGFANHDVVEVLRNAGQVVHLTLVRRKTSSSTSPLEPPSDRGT

GRIP2_5, Q9C0E4 = molecular target: GRIP2_5, Q9C0E4
GRIP2_5, Q9C0E4, sequence (Q9C0E4 544-642): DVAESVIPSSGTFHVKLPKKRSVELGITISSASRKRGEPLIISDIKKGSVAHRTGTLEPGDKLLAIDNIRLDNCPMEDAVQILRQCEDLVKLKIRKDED

MAGI2_6, Q86UL8 = molecular target: MAGI2_6, Q86UL8
MAGI2_6, Q86UL8, sequence (Q86UL8 1141-1229): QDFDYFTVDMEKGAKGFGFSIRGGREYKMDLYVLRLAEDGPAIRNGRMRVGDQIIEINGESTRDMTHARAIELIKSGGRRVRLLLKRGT

IL16_4, Q14005 = molecular target: IL16_4, Q14005
IL16_4, Q14005, sequence (Q14005 1229-1329): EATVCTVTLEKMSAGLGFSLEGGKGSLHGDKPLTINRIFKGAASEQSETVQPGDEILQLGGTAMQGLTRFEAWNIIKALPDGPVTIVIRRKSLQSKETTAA

FRMPD2_1, Q68DX3 = molecular target: FRMPD2_1, Q68DX3
FRMPD2_1, Q68DX3, sequence (Q68DX3 770-861): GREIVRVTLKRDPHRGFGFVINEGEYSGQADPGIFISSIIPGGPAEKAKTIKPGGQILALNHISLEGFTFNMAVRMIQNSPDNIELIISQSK

NHERF3_4, Q5T2W1 = molecular target: T4, NHERF3_4, Q5T2W1
T4 sequence (Q5T2W1 373-468, limits assumed, looked up): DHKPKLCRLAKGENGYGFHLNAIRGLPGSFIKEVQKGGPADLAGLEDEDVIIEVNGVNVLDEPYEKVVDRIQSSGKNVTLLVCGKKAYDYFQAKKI

IL16_3, Q14005 = molecular target: IL16_3, Q14005
IL16_3, Q14005, sequence (Q14005 1107-1207): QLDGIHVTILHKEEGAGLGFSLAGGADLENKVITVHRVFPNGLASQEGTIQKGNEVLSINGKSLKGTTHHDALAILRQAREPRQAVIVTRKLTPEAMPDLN

PARD3B_1, Q8TEW8 = molecular target: T5, PARD3B_1, Q8TEW8
T5 sequence (Q8TEW8 196-299, limits assumed, looked up): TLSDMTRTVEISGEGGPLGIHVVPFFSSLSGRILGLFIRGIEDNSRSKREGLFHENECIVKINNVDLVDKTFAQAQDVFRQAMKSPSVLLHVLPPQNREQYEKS

ARHGAP21, Q5T5U3 = molecular target: T6, ARHGAP21, Q5T5U3
T6 sequence (Q5T5U3 45-169, limits assumed, looked up): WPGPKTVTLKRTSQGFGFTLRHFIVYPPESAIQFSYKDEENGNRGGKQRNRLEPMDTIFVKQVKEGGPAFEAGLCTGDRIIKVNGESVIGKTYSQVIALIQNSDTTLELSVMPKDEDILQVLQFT

SIPA1L2, Q9P2F8 = molecular target: T7, SIPA1L2, Q9P2F8
T7 sequence (Q9P2F8 945-1036, limits assumed, looked up): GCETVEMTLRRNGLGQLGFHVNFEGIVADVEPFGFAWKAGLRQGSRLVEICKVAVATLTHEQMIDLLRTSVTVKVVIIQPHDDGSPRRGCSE

DLG4_2, P78352 = molecular target: DLG4_2, P78352
DLG4_2, P78352, sequence (P78352 155-259): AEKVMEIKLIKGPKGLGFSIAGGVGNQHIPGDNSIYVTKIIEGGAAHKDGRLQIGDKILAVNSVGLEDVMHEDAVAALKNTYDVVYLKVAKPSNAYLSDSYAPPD

ARHGEF11, O15085 = molecular target: T8, ARHGEF11, O15085
T8 sequence (O15085 42-136, limits assumed, looked up): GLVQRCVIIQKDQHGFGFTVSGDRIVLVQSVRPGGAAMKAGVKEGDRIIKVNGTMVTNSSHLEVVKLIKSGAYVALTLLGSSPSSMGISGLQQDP

PCLO, Q9Y6V0 = molecular target: T9, PCLO, Q9Y6V0
T9 sequence (Q9Y6V0 4491-4600, limits assumed, looked up): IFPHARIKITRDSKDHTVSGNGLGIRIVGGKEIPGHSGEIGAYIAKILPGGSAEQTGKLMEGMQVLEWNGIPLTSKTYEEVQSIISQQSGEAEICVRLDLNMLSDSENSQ

MAGI2_3, Q86UL8 = molecular target: MAGI2_3, Q86UL8
MAGI2_3, Q86UL8, sequence (Q86UL8 600-682): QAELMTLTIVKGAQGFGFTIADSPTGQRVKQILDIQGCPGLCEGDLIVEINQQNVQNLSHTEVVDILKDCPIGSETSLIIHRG

LNX1_3, Q8TBB1 = molecular target: LNX1_3, Q8TBB1
LNX1_3, Q8TBB1, sequence (Q8TBB1 500-596): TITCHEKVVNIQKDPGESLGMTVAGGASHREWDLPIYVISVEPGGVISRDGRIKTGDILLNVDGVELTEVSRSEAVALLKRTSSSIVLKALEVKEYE

GRIP1_2, Q9Y3R0 = molecular target: T10, GRIP1_2, Q9Y3R0
T10 sequence (Q9Y3R0 145-248, limits assumed, looked up): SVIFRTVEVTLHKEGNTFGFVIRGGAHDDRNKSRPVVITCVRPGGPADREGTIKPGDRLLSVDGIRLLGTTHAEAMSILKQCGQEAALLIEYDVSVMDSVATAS

DFNB31_3, Q9P202 = molecular target: T11, DFNB31_3, Q9P202
T11 sequence (Q9P202 811-907, limits assumed, looked up): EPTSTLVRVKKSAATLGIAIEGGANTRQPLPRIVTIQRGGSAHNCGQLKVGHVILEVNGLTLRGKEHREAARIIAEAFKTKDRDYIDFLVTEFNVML

SNTB1, Q13884 = molecular target: T12, SNTB1, Q13884
T12 sequence (Q13884 107-205, limits assumed, looked up): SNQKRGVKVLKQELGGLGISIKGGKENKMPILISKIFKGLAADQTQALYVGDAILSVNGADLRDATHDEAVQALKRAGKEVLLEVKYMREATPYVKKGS

LNX2_3, Q8N448 = molecular target: T13, LNX2_3, Q8N448
T13 sequence (Q8N448 463-564, limits assumed, looked up): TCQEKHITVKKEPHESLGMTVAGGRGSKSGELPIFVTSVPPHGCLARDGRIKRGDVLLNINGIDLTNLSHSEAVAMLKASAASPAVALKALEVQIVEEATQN

[1] = plain residues with an end cap or a label only (N-terminal biotin on a linker: ado-ado)
[2] = plain residues with an end cap or a label only (N-terminal biotin on a linker: ahx)
[3] = plain residues with an end cap or a label only (N-terminal biotin on a linker: (peg)3)

Measured: pKd

MAST1, Q9Y2H9, sequence (Q9Y2H9 962-1065): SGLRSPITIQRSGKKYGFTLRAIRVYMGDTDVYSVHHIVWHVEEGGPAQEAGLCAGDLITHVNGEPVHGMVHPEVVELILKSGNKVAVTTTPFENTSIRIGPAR

NTLNRKTTPV [CACNG8, Q8WXS5]
3.85: MAGI2_3, Q86UL8; [1]
below the threshold: MPDZ_12, O75970; [1] | LAP2, Q96RT1; [1] | Inadl_3, Q8NI35; [1] | MAGI2_6, Q86UL8; [1] | FRMPD2_1, Q68DX3; [1] | IL16_3, Q14005; [1] | PARD3B_1, Q8TEW8; [1] | SIPA1L2, Q9P2F8; [1] | PCLO, Q9Y6V0; [1] | LNX1_3, Q8TBB1; [1] | DFNB31_3, Q9P202; [1] | LNX2_3, Q8N448; [1]
3.54: GRIP2_5, Q9C0E4; [1]
4.08: ARHGEF11, O15085; [1]
3.61: GRIP1_2, Q9Y3R0; [1]
4.17: MAST1, Q9Y2H9; [1]
4.94: DLG4_2, P78352; [1]
4.07: SNTB1, Q13884; [1]
3.66: NHERF3_4, Q5T2W1; [1]
3.59: IL16_4, Q14005; [1]
3.84: MPDZ_10, O75970; [1]
3.86: ARHGAP21, Q5T5U3; [1]
3.49: GRIP1_7, Q9Y3R0; [1]

TQKFRASTAL [FRMPD1, Q5SYB0]
4.44: MAST1, Q9Y2H9; [2]
3.77: FRMPD2_1, Q68DX3; [2]
4.54: NHERF3_4, Q5T2W1; [2]
below the threshold: MPDZ_12, O75970; [2] | MPDZ_10, O75970; [2] | GRIP1_7, Q9Y3R0; [2] | LAP2, Q96RT1; [2] | Inadl_3, Q8NI35; [2] | GRIP2_5, Q9C0E4; [2] | MAGI2_6, Q86UL8; [2] | IL16_4, Q14005; [2] | IL16_3, Q14005; [2] | PARD3B_1, Q8TEW8; [2] | ARHGAP21, Q5T5U3; [2] | SIPA1L2, Q9P2F8; [2] | PCLO, Q9Y6V0; [2] | MAGI2_3, Q86UL8; [2] | LNX1_3, Q8TBB1; [2] | GRIP1_2, Q9Y3R0; [2] | DFNB31_3, Q9P202; [2] | SNTB1, Q13884; [2] | LNX2_3, Q8N448; [2]
4.38: ARHGEF11, O15085; [2]
3.55: DLG4_2, P78352; [2]

RRRRSQSRESQC [HBV-HBc, P03193]
4.78: SNTB1, Q13884; [3]
3.92: MAST1, Q9Y2H9; [3]
3.68: IL16_4, Q14005; [3]
below the threshold: MPDZ_12, O75970; [3] | MPDZ_10, O75970; [3] | GRIP1_7, Q9Y3R0; [3] | LAP2, Q96RT1; [3] | Inadl_3, Q8NI35; [3] | GRIP2_5, Q9C0E4; [3] | MAGI2_6, Q86UL8; [3] | FRMPD2_1, Q68DX3; [3] | NHERF3_4, Q5T2W1; [3] | IL16_3, Q14005; [3] | PARD3B_1, Q8TEW8; [3] | ARHGAP21, Q5T5U3; [3] | SIPA1L2, Q9P2F8; [3] | ARHGEF11, O15085; [3] | PCLO, Q9Y6V0; [3] | MAGI2_3, Q86UL8; [3] | LNX1_3, Q8TBB1; [3] | GRIP1_2, Q9Y3R0; [3] | DFNB31_3, Q9P202; [3] | LNX2_3, Q8N448; [3]
4.3: DLG4_2, P78352; [3]

NTANRRTTPV [CACNG2, Q9Y698]
4.23: SNTB1, Q13884; [1]
3.83: ARHGEF11, O15085; [1]
3.87: MPDZ_10, O75970; [1]
3.5: NHERF3_4, Q5T2W1; [1]
4.89: DLG4_2, P78352; [1]
3.53: MAGI2_6, Q86UL8; [1]
below the threshold: MAST1, Q9Y2H9; [1] | MPDZ_12, O75970; [1] | GRIP1_7, Q9Y3R0; [1] | LAP2, Q96RT1; [1] | Inadl_3, Q8NI35; [1] | GRIP2_5, Q9C0E4; [1] | IL16_4, Q14005; [1] | FRMPD2_1, Q68DX3; [1] | IL16_3, Q14005; [1] | PARD3B_1, Q8TEW8; [1] | SIPA1L2, Q9P2F8; [1] | PCLO, Q9Y6V0; [1] | MAGI2_3, Q86UL8; [1] | LNX1_3, Q8TBB1; [1] | GRIP1_2, Q9Y3R0; [1] | DFNB31_3, Q9P202; [1] | LNX2_3, Q8N448; [1]
3.86: ARHGAP21, Q5T5U3; [1]
